{"source": "patent US20250250357A1", "key": {"[1]": {"molecular_target": "human MSLN full-length protein (NCBI: AAH09272.1) on stably transfected CHO-K1 or HEK293T cells (human) (UniProt Q13421)", "assay": "FACS on CHO-K1-hMSLN-2C8 cells; antibody 0.032 nM"}, "[2]": {"molecular_target": "human MSLN-R3-3 polypeptide (human)", "assay": "ELISA, coated antigen, antibody 0.0001 nM"}, "[3]": {"molecular_target": "human MSLN-R3-3 polypeptide (human)", "assay": "ELISA, coated antigen, no antibody (blank)"}, "[4]": {"molecular_target": "human MSLN full-length protein (NCBI: AAH09272.1) on stably transfected CHO-K1 or HEK293T cells (human) (UniProt Q13421)", "assay": "FACS on CHO-K1-hMSLN-2C8 cells; antibody […]"}, "[5]": {"molecular_target": "human MSLN-R3-3 polypeptide (human)", "assay": "ELISA, coated antigen, antibody 1 nM"}, "[6]": {"molecular_target": "human MSLN-R3-3 polypeptide (human)", "assay": "ELISA, coated antigen, antibody 100 nM"}, "[7]": {"molecular_target": "human MSLN-R3-3 polypeptide (human)", "assay": "ELISA, coated antigen, antibody 0.001 nM"}, "[8]": {"molecular_target": "human MSLN-R3-3 polypeptide (human)", "assay": "ELISA, coated antigen, antibody 0.01 nM"}, "[9]": {"molecular_target": "human MSLN full-length protein (NCBI: AAH09272.1) on stably transfected CHO-K1 or HEK293T cells (human) (UniProt Q13421)", "assay": "FACS on CHO-K1-hMSLN-2C8 cells; antibody 0.0064 nM"}, "[10]": {"molecular_target": "human MSLN full-length protein (NCBI: AAH09272.1) on stably transfected CHO-K1 or HEK293T cells (human) (UniProt Q13421)", "assay": "FACS on CHO-K1-hMSLN-2C8 cells; antibody 0.8 nM"}, "[11]": {"molecular_target": "human MSLN-R3-3 polypeptide (human)", "assay": "ELISA, coated antigen, antibody 10 nM"}, "[12]": {"molecular_target": "human MSLN full-length protein (NCBI: AAH09272.1) on stably transfected CHO-K1 or HEK293T cells (human) (UniProt Q13421)", "assay": "FACS on CHO-K1-hMSLN-2C8 cells; antibody 0.00128 nM"}, "[13]": {"molecular_target": "human MSLN-R3-3 polypeptide (human)", "assay": "ELISA, coated antigen, antibody 0.1 nM"}, "[14]": {"molecular_target": "human MSLN full-length protein (NCBI: AAH09272.1) on stably transfected CHO-K1 or HEK293T cells (human) (UniProt Q13421)", "assay": "FACS on CHO-K1-hMSLN-2C8 cells; antibody 100 nM"}, "[15]": {"molecular_target": "human MSLN-R3-3 polypeptide (human)", "assay": "ELISA; antibody 1 nM"}, "[16]": {"molecular_target": "human MSLN full-length protein (NCBI: AAH09272.1) on stably transfected CHO-K1 or HEK293T cells (human) (UniProt Q13421)", "assay": "FACS on CHO-K1-hMSLN-2C8 cells; antibody 4 nM"}, "[17]": {"molecular_target": "human MSLN full-length protein (NCBI: AAH09272.1) on stably transfected CHO-K1 or HEK293T cells (human) (UniProt Q13421)", "assay": "FACS on CHO-K1-hMSLN-2C8 cells; antibody 20 nM"}, "[18]": {"molecular_target": "human MSLN-R3 protein (Met487-Ser606 of NCBI AAH09272.1) expressed on HEK293T-hMSLN-R3 cells (human) (UniProt Q13421)", "sequence (Q13421 495-614)": "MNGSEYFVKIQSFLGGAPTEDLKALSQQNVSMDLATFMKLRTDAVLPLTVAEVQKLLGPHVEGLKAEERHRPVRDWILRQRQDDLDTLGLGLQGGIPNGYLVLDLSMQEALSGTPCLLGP", "assay": "FACS on HEK293T-hMSLN-R3 cells"}}}
{"binder": "Tab106 (YP218, hIgG1) (antibody, V domains shown) VH: QQQLEESGGGLVKPEGSLTLTCKASGFDLGFYFYACWVRQAPGKGLEWIACIYTAGSGSTYYASWAKGRFTISKASSTTVTLQMTSLAAADTATYFCARSTANTRSTYYLNLWGPGTLVTVSS VL: DVVMTQTPASVSEPVGGTVTIKCQASQRISSYLSWYQQKPGQRPKLLIFGASTLASGVPSRFKGSGSGTEYTLTISDLECADAATYYCQSYAYFDSNNWHAFGGGTEVVVRT", "values": [{"measurement": "FACS fluorescence intensity", "setting": "[1]", "result": 119}, {"measurement": "OD450", "setting": "[2]", "result": 0.06}, {"measurement": "OD450", "setting": "[3]", "result": 0.07}, {"measurement": "FACS fluorescence intensity", "setting": "[4]", "result": 270}, {"measurement": "OD450", "setting": "[5]", "result": 0.33}, {"measurement": "OD450", "setting": "[6]", "result": 1.94}, {"measurement": "OD450", "setting": "[7]", "result": 0.05}, {"measurement": "OD450", "setting": "[8]", "result": 0.05}, {"measurement": "FACS fluorescence intensity", "setting": "[9]", "result": 77}, {"measurement": "FACS fluorescence intensity", "setting": "[10]", "result": 812}, {"measurement": "OD450", "setting": "[11]", "result": 1.35}, {"measurement": "FACS fluorescence intensity", "setting": "[12]", "result": 68}, {"measurement": "OD450", "setting": "[13]", "result": 0.08}, {"measurement": "FACS fluorescence intensity", "setting": "[14]", "result": 6720}, {"measurement": "OD450 nm", "setting": "[15]", "result": 0.98}, {"measurement": "FACS fluorescence intensity", "setting": "[16]", "result": 2780}, {"measurement": "FACS fluorescence intensity", "setting": "[17]", "result": 6270}]}
{"binder": "S009-F2.47.1 (antibody, human IgG1, kappa, V domains shown) VH: QVQLQQPGAELVKPGASVKLSCKASGYTFTSYWMHWVKQRPGQGLEWIGMIHPNSGSTNYNEKFKSKATLTVDKSSSTAYMQLSSLTSEDSAVYYCARPVVPYWYFDVWGTGTTVTVSS VL: DIVMTQSQKFMSTTVGDRVSITCKASQNVGTAVAWYQQKPGQSPKLLIYSASNRYTGVPDRFTGSGSGTDFTLTISNMQSEDLADYFCQQSSSYPLTFGAGTKLELKR", "values": [{"measurement": "Maximum mean fluorescence intensity", "setting": "[18]", "result": 4580}]}
